Tests used:
[1] = biological target: recombinant human α4β1 integrin (human) (UniProt P13612); test: ELISA, coated integrin, supernatant 1:10
[2] = biological target: recombinant human α5β1 integrin (human) (UniProt P08648); test: ELISA, coated integrin, supernatant 1:10
[3] = biological target: T1, recombinant mouse α5β1 integrin (mouse, UniProt P11688 45-999; P09055 21-728); test: ELISA, coated integrin, supernatant 1:10
T1 construct: bought recombinant heterodimer (R&D Systems cat. 7728-A5) coated on the plate; also called rm-α5β1
Description: Plates were washed 3 times with Wash Buffer (1× Tris Buffered Saline containing 0.05% Tween20), blocked with 2% BSA in 1×TBS (made from 10× Thermo Scientific Blocker BSA (10×) in TBS; Thermo Fisher Scientific, Waltham, MA, cat. no. 37520) for 2 hours at room temperature (RT) then incubated with hybridoma supernatants diluted 1:10 with Standard Diluent (2% BSA, 1×TBS, 0.05% Tween20). […] Absorbance 450 nm was measured.

[4] = biological target: α5β1 integrin on cells (PMA-activated K562 cells; U87MG cells) (human) (UniProt P08648); test: flow cytometry on PMA-activated K562 cells, hybridoma supernatant
α5β1 integrin on cells (PMA-activated K562 cells; U87MG cells) (human), sequence (P08648 42-1049 limits assumed, chain 1 of 2): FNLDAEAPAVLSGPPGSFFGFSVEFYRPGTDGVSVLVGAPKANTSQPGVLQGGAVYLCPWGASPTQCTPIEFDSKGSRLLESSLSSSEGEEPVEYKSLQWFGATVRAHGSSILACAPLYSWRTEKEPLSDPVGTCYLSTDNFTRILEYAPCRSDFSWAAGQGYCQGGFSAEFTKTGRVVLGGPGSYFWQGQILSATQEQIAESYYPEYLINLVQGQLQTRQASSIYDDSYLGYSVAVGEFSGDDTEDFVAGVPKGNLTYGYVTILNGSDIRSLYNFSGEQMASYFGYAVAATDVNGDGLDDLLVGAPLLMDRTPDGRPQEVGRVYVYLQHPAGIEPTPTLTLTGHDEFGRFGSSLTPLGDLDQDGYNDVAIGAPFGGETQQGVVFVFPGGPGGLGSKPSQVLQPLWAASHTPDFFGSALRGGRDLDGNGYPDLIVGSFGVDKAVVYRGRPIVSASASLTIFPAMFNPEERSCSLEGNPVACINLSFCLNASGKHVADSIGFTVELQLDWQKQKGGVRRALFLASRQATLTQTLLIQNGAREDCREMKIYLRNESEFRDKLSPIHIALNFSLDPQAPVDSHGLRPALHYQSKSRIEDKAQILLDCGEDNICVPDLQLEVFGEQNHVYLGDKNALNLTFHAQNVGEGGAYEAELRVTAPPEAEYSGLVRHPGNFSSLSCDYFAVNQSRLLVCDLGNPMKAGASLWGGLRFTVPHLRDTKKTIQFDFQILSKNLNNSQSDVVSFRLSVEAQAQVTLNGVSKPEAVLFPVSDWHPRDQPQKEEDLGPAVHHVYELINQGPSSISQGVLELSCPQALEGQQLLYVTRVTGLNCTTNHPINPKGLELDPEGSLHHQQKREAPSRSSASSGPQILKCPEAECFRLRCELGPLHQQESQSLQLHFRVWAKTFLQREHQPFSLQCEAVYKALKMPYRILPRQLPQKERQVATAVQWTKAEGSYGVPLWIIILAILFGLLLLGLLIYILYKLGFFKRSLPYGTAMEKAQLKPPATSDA
α5β1 integrin on cells (PMA-activated K562 cells; U87MG cells) (human), sequence (chain, as listed by the source limits assumed, chain 2 of 2): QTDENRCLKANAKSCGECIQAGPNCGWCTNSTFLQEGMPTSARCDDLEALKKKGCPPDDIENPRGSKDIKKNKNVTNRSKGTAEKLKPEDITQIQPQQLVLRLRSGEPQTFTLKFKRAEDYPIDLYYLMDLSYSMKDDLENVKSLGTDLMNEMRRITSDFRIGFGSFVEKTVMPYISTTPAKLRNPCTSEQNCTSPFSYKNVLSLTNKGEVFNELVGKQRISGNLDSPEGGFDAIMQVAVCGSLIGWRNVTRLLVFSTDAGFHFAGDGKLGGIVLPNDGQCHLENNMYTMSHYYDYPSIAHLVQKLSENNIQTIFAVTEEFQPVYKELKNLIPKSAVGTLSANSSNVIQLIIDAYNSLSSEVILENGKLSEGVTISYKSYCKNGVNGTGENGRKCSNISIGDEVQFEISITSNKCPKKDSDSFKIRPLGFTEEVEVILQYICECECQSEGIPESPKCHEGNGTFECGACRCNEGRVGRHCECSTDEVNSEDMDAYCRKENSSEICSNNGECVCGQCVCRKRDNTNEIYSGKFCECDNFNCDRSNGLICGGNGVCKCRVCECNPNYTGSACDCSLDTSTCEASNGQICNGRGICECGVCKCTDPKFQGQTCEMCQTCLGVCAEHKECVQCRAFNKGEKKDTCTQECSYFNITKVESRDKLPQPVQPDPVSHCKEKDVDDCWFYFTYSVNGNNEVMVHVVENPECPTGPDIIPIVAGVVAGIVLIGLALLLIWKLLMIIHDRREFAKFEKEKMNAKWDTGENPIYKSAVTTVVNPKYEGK

[5] = biological target: purified recombinant human α5β1 integrin heterodimer, 6×His tagged (rh-α5β1; Acro Biosystems, cat. no. IT1-H52W5) (human) (UniProt P08648); test: BLI (Octet), supernatant mAb on anti-mouse IgG Fc sensor, 20 nM rh-α5β1
purified recombinant human α5β1 integrin heterodimer, 6×His tagged (rh-α5β1; Acro Biosystems, cat. no. IT1-H52W5) (human), sequence (P08648 42-995 limits assumed, form in doubt, chain 1 of 2): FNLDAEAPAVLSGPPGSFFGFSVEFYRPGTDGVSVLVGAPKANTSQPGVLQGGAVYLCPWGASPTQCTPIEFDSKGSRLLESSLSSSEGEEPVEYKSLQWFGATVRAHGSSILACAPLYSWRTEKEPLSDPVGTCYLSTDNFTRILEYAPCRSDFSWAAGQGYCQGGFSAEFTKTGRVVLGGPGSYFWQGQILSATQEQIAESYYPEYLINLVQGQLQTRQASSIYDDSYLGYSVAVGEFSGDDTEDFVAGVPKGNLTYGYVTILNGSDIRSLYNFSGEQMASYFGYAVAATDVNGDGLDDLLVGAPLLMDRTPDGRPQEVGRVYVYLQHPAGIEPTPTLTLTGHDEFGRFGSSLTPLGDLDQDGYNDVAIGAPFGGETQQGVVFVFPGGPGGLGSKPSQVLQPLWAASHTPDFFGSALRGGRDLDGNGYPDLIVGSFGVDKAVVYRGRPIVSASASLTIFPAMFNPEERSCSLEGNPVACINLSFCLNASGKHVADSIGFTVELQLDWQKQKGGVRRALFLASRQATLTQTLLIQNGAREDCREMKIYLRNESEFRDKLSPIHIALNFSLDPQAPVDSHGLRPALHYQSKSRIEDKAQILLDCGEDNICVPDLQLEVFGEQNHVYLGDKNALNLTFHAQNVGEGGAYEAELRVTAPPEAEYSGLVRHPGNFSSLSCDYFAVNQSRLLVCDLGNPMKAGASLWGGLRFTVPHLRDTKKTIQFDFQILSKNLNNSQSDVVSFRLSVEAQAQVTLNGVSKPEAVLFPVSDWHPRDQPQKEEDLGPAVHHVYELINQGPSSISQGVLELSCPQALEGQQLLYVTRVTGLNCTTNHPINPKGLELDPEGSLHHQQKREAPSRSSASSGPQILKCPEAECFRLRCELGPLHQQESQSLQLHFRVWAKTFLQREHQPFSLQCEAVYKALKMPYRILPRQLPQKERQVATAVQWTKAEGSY
purified recombinant human α5β1 integrin heterodimer, 6×His tagged (rh-α5β1; Acro Biosystems, cat. no. IT1-H52W5) (human), sequence (chain, as listed by the source limits assumed, form in doubt, chain 2 of 2): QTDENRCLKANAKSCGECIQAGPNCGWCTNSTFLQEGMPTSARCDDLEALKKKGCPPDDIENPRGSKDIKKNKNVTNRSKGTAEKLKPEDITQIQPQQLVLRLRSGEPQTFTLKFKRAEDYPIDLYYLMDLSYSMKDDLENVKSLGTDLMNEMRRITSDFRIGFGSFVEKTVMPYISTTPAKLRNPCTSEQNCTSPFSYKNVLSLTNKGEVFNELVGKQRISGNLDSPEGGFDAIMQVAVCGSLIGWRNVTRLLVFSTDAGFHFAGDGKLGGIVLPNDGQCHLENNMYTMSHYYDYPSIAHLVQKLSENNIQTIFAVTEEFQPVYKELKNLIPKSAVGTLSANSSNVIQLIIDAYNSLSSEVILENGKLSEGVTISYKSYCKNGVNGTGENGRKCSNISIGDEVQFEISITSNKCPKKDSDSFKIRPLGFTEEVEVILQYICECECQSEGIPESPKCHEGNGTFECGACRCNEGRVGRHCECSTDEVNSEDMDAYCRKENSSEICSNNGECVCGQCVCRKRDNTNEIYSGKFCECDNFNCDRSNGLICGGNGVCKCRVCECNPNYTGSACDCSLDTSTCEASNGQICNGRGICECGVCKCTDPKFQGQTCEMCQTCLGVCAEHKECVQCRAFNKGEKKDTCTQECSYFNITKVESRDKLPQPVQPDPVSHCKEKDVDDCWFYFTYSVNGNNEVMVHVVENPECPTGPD

recombinant human α5β1 integrin (human), sequence (P08648 42-995 limits assumed, form in doubt, chain 1 of 2): as the sequence (P08648 42-995 limits assumed, form in doubt, chain 1 of 2) above
recombinant human α5β1 integrin (human), sequence (chain, as listed by the source limits assumed, form in doubt, chain 2 of 2): as the sequence (chain, as listed by the source limits assumed, form in doubt, chain 2 of 2) above
recombinant human α4β1 integrin (human), sequence (P13612 34-977 limits assumed, form in doubt, chain 1 of 2): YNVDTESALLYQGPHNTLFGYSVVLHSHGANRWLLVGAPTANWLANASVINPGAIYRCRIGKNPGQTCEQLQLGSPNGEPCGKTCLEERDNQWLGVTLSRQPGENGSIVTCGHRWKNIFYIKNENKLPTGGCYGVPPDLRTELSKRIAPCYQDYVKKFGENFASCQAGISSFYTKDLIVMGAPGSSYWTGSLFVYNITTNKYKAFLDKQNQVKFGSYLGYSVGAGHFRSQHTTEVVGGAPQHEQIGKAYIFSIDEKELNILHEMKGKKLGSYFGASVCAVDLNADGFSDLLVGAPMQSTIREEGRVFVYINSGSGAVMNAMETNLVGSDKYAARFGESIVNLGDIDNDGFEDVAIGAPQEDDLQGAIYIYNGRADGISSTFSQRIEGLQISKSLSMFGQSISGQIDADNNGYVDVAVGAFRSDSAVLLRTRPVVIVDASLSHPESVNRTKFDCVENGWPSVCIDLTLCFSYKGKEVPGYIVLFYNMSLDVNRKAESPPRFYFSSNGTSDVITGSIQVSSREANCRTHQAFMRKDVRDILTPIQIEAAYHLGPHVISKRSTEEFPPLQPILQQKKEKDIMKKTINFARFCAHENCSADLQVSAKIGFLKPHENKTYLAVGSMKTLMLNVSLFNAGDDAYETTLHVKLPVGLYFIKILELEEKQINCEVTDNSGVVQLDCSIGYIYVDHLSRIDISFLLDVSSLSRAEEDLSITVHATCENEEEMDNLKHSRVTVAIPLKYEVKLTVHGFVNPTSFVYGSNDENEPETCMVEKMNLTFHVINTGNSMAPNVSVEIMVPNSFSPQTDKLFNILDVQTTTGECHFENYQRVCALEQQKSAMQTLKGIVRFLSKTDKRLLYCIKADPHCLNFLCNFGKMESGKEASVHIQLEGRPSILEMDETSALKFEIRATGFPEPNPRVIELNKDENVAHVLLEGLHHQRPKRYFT
recombinant human α4β1 integrin (human), sequence (chain, as listed by the source limits assumed, form in doubt, chain 2 of 2): as the sequence (chain, as listed by the source limits assumed, form in doubt, chain 2 of 2) above

- Absorbance 450 nm [1]: 0.0793 A450
- Absorbance 450 nm [2]: 0.478 A450
- Absorbance 450 nm [3]: 0.0709 A450
- MFI [4]: 1970
- Kd [5]: 4.67 nM
- koff [5]: 0.00129 s⁻¹
- kon [5]: 276000 M⁻¹ s⁻¹
B1: A-15C03 (antibody, part only; not given: light chain, V domains shown, part only)
VH: QVQLKESGPGLVAPSQSLSITCTISGFSLTTYGVHWVRQPPGKGLEWLVVIWSDGSTTYNSALKSRLNITKDNSKSQVFLKMNSLQTDDTAMYYCVRHGGLLRRDAMDYWGQGTSVTVSS

Source: patent US20240279345A1, “ALPHA 5 BETA 1 INTEGRIN BINDING AGENTS AND USES THEREOF” (PASITHEA THERAPEUTICS CORP., priority 2021, published 2024)
